Source: patent US20190106487A1 (Sanofi, published 2019)
Changes are numbered by the printed parent chain.

B1: P013.S.01.B.G05 (antibody, V domains shown)
VH: LEQSGGGAEGGLVKPGGSLELCCKASGFSLSSAYWICWVRQAPGKGLEWVGCIYADSSSITYYASWVNGRFTLSRDIDQSTGCLQLNSLTAADTAMYYCARDYGGSGYNFNLWGQGTLVTVSS
VL: ALVMTQTPSPVSAAVGGTVTISCQASEDIYSNLAWYQQKRGQPPKLLIYYASTLASGVPSRFSGSGSGTEFTLTISGLQSDDAATYYCLGVCTYINANGWDNAFGGGTEVVVK
notes: rabbit monoclonal antibody; also called P013.A.00088.C10
B2: P013.S.01.B.G06 (antibody, V domains shown)
VH: QSLEESGGRLVTPGTPLTLTCTASGFTISSYYMSWVRQAPGKGLEWIGGIATDGNTYYANWAKGRFTVSRTSTTVDLKVTSPTAEDTATYFCARGGPAYSRGTHYAMDLWGPGTLVTVSS
VL: AYDMTQTPASVEVAVGGTVTIKCQASQSIYIYLAWYQQKPGQRPKQLIYDASKLASGVPSRFSGSGSGTEFTLTISGVESADAATYYCQQGATIWNVDNPFGGGTEVVVK
notes: rabbit monoclonal antibody; also called P013.A.00085.H05
B3: P013.S.01.B.H04 (antibody, V domains shown)
VH: QSVEESGGRLVTPGTPLTLTCTVSGFSLDSYAMGWVRQAPGKGLEWIGIINSYGSIYYASWAKGRFTISKTSTTVDLKMTSLTTEDTATYFCARSAYSNNGDRLHLWGQGTLVTVSS
VL: DIVMTQTPSPVSGAVGGTVTIKCQASEDIYSNLAWYQQKPGQPPKLLIYYVSTLESGVPSRFKGSRSGTDYTLTISDLESADAATYYCQCTEGGSGSDYTFGGGTEVVVK
notes: rabbit monoclonal antibody; also called P013.A.00014.G05
B4: P013.S.02.B.C04 (antibody, V domains shown)
VH: QQLEQSGGGLVKPGGSLELCCKASGFSLSSSYWICWVRQAPGKGLEWIGCIYAGSSGSTYYANWVNGRFTLSRDIDQSTGCLQLSSLTAADTAMYYCARSIVDFSSGWGDLWGQGTLVTVSS
VL: ALVMTQTPSPVSAAVGGTVTINCQASEDIYSNLAWYQQKPGQPPKLLMYGVSTLASGVPSRFSDSGSGTEFTLTISGLQSDDAATYYCLGVYTYISDVYYTFGGGTEVVVK
notes: rabbit monoclonal antibody; also called P013.A.00085.H07
B5: P013.S.01.B.B02 (antibody, V domains shown)
VH: LEQSGGGAEGGLVKPGGSLELCCKASGFSLSSSYWICWVRQAPGKGLEWIGCIYTGSSGITYYASWVNGRFTLSRDIDQSTGCLQLNSLTAADTAMYYCAKDGPSTLFNFWGQGTLVTVSS
VL: ALVMTQTPSPVSAAVGGTVTINCQASEDIYSNLAWFQQKPGQPPKLLIYRASTLASGVPSRFKGSGSGTEFTLTISGLQSDDAATYYCLGVYTYPSADNAFGGGTEVVVR
notes: rabbit monoclonal antibody; also called P013.A.00014.B03
B6: P013.S.02.B.E03 (antibody, V domains shown)
VH: QSVEESGGRLVTPGTPLTLTCTVSGFSLSDYYMGWVRQAPGKGLEWIGTIDGGGSTYYASWAKGRFTVSKTSTTVDLTITSPTTEDTAIYFCARNYYAGLSDVFFGWWGQGTLVTVSS
VL: DVVMTQTPASVEAAVGGTVTIMCQASETIYSGLAWYQQKPGQPPKLLIYYTSSLASGVPSRFKGSGSGTEFTLTISDLESADAATYYCQTYYDSEGRSYGYNSFGGGTEVVVK
notes: rabbit monoclonal antibody; also called P013.A.00091.A10
B7: P013.S.01.B.C02 (antibody, V domains shown)
VH: QSLEESGGDLVKPGASLTLTCTASGFSFSSSHYMCWVRQAPGKGLEWIACIYAGSSGNTYYANWAKGRFTISKTSSTTVTLQMTSLTAADTATYFCARVDASSSGSWDLWGPGTLVTVSS
VL: AIEMTQTPFSVSAAVGGTVTINCQASESIYSNLAWYQQILGQPPKLLIYAASLLASGVPSRFKGSGSGTEYTLTISGVQSADAATYYCQSASYSTGPDWTFGGGTEVVVE
notes: rabbit monoclonal antibody; also called P013.A.00014.C10
B8: P013.S.01.B.C05 (antibody, V domains shown)
VH: QSVEESGGRLVTPGTPLTLTCTVSGFSLSNYAMSWVRQAPGKGLEYIGIIDSGGSAYYATWARGRFTISRTSTTVDLKMTSPTTEDTATYFCARGGPAYSTNTHYTLDLWGPGTLVTVSS
VL: AFEMTQTPSSVSEPVGGTVTIKCQASQSIYNYLSWYQQKPGQPPKLLIYDASELASGVPSRFKGSGSGTEFTLTISGVQSDDAATYYCQQGATTYNIENVFGGGTEVVVK
notes: rabbit monoclonal antibody; also called P013.A.00045.E06
B9: P013.S.01.B.D06 (antibody, V domains shown)
VH: QSLEESGGDLVKPGASLTLTCTASGFSFSSSYYMCWVRQAPGKGLEWIACIYAGSSGVTYYASWAKGRFTISDTSSTTVTLQMTSLTAADTATYFCASETDGNYFNLWGPGTLVTVSS
VL: B5 VL with K63S, P95S, S96T, A97D, D98I, N99H, R110K
notes: rabbit monoclonal antibody; also called P013.A.00029.D02
B10: P013.S.01.B.E04 (antibody, V domains shown)
VH: QSVEESGGRLVTPGTPLTLTCTVSGIDLNSNGINWVRQAPGKGLEWIGYIGAGDITYCASWAKGRFTISKTSSTTVDLKITSLTTEDTATYFCARWGPGALDLWGQGTLVTVSS
VL: AQVLTQTASSVSATVGGTVTISCQSSQSVYNNNYLSWYQQKPGQPPKLLIYKASTLASGVPLRFSGSGSGTQFTLTISGVQSDDAATYYCAGFYETTDVGFGGGTEVVVK
notes: rabbit monoclonal antibody; also called P013.A.00109.D07

Target: T1, human IL-1RAcP on 293T/17-FR cells (human, UniProt Q9NPH3 21-570)
T1 sequence (looked up): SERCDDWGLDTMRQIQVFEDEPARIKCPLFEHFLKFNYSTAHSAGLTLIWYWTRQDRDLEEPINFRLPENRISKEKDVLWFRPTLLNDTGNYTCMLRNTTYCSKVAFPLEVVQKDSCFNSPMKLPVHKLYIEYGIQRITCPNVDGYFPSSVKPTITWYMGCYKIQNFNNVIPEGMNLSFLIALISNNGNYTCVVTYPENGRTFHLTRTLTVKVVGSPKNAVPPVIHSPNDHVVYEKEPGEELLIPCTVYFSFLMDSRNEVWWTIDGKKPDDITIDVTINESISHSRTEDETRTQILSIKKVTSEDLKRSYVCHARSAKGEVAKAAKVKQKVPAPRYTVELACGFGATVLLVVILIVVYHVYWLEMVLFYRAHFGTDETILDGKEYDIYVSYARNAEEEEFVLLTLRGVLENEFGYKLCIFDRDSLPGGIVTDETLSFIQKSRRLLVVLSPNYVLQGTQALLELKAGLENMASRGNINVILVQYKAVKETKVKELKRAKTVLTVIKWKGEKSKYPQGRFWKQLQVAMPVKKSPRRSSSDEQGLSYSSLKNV
Test: cell-based or functional assay

Point of comparison: B2, “functional reporter gene assay (% inhibition), 0.04 µg/mL mAb” value 69%. Against it:
- B1 — lower, 21%
- B3 — lower, 10%
- B4 — lower, 29%
- B5 — higher, 75%
- B6 — lower, 6%
- B7 — lower, 18%
- B8 — lower, 67%
- B9 — lower, 24%
- B10 — lower, 39%

Point of comparison: B10, “functional reporter gene assay (% inhibition), 0.2 µg/mL mAb” value 62%. Against it:
- B1 — lower, 50%
- B2 — lower, 49%
- B3 — lower, 49%
- B4 — lower, 26%
- B5 — higher, 84%
- B6 — lower, 12%
- B7 — higher, 78%
- B8 — higher, 74%
- B9 — higher, 66%

Point of comparison: B10, “functional reporter gene assay (% inhibition), 1 µg/mL mAb” value 88%. Against it:
- B1 — lower, 82%
- B2 — higher, 94%
- B3 — lower, 49%
- B4 — lower, 40%
- B5 — higher, 94%
- B6 — lower, 16%
- B7 — higher, 99%
- B8 — lower, 87%
- B9 — higher, 96%

Point of comparison: B7, “functional reporter gene assay (% inhibition), 5 µg/mL mAb” value 98%. Against it:
- B1 — lower, 93%
- B2 — lower, 96%
- B3 — lower, 54%
- B4 — lower, 91%
- B5 — the same, 98%
- B6 — lower, 25%
- B8 — lower, 95%
- B9 — lower, 97%
- B10 — the same, 98%

Point of comparison: B8, “primary supernatant functional assay (% inh.), NF-kB luciferase reporter” value 27%. Against it:
- B1 — higher, 81%
- B2 — higher, 89%
- B3 — higher, 35%
- B4 — higher, 65%
- B5 — higher, 97%
- B6 — higher, 37%
- B7 — higher, 82%
- B9 — higher, 80%
- B10 — higher, 88%

Target: T2, rhIL-1RAcP/Fc Chimera (human, UniProt Q9NPH3 21-359)
T2 construct: also called P013_03; P013-03
T2 sequence (looked up): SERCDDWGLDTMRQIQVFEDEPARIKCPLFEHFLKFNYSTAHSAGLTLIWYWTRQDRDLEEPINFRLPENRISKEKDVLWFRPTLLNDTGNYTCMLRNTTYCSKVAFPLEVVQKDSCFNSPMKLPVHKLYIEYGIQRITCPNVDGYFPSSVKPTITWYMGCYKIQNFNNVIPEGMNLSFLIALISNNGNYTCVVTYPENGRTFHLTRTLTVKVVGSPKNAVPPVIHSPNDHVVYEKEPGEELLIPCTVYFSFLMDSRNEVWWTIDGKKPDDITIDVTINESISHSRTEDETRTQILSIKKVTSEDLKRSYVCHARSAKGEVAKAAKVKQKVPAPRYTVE
Test: ELISA, recombinant purified mAb

Point of comparison: B8, EC50 0.038 µg/mL. Against it:
- B1 — 22-fold higher, 0.817 µg/mL
- B2 — 3-fold higher, 0.115 µg/mL
- B3 — 1.6-fold higher, 0.062 µg/mL
- B4 — 20-fold higher, 0.758 µg/mL
- B5 — 4.6-fold higher, 0.175 µg/mL
- B6 — 9.6-fold higher, 0.363 µg/mL
- B7 — 2.8-fold higher, 0.105 µg/mL
- B9 — within 1.5-fold, 0.053 µg/mL
- B10 — 1.9-fold higher, 0.072 µg/mL

Target: T2, rhIL-1RAcP/Fc Chimera
Test: ELISA, primary supernatant, coated hu-IL-1RAcP-Fc
Text: Microtiter plates were coated IL-1RACP and/or IL12Rβ1 protein (recombinant Fc chimeric conjugates of human IL-1RACP or IL12Rβ1). After a blocking process, specific antibodies from B-cell supernatants bind to the targets and are then detected by a POD-labeled anti-rabbit IgG antibody. The IL12Rβ1 binding was used as a counterscreen. IL-1RACP protein was tagged with a linker, huFc and His like the IL12Rβ1 protein. Antibodies which bind to the tag were positive in both assays, whereas antigen specific antibodies just bound to IL-1RACP and not to IL12Rβ1.
12.5 μL 0.5 μg/mL IL-1RACP protein in PBS was transferred to a microtiter plate, incubated and washed 3× with Wash Buffer. 90 μL Block Buffer was added to each well, incubated and washed. 12.5 μl Standard Antibody (rabbit mAb against IL-1RAcP, anti IL12Rbeta1 antibody: IL-12Rbeta1 antibody; GeneTex; Cat. No. GTX103917) or sample diluted in ELISA buffer was added, incubated and washed. 12.5 μl 1:5000 POD-Antibody (Anti-rabbit IgG, peroxidase-linked species-specific Fab2 fragment (from donkey) (ECL); assay dilution: 1:5000) in Elisa Buffer was added, incubated and washed. 15 μl TMB was added and 15 μl HCl was added after sufficient development. Absorbance (Optical Density O.D.) was read at 450 nm/620 nm.

Point of comparison: B3, “hu-IL1RaP ELISA (OD)” value 3.7 OD. Against it:
- B1 — lower, 3.3 OD
- B2 — higher, 3.8 OD
- B4 — lower, 2.7 OD
- B5 — lower, 3.6 OD
- B6 — lower, 3.3 OD
- B7 — lower, 3.4 OD
- B8 — lower, 2.5 OD
- B9 — the same, 3.7 OD
- B10 — lower, 3.3 OD
